# Source: US20050015820A1
# Experiments:
# [1] = target: melanocortin 3 receptor (MC3-R) (mouse) (UniProt P33033); assay: cell-based or functional assay
# [2] = target: µ opioid receptor (MOP-R) (mouse) (UniProt P42866); assay: cell-based or functional assay
# Sequence of µ opioid receptor (MOP-R) (mouse) (P42866 whole entry): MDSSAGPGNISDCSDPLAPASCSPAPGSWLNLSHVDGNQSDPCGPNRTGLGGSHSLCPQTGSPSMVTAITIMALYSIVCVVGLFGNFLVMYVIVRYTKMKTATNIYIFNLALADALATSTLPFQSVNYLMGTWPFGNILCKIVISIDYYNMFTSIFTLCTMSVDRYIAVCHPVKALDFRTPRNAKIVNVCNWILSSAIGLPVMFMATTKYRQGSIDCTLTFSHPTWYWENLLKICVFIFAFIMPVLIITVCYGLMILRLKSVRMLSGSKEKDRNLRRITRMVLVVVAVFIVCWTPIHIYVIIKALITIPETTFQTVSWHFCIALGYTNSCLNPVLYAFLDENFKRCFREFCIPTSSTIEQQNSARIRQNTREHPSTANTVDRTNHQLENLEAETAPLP
# Sequence of melanocortin 3 receptor (MC3-R) (mouse) (P33033 whole entry): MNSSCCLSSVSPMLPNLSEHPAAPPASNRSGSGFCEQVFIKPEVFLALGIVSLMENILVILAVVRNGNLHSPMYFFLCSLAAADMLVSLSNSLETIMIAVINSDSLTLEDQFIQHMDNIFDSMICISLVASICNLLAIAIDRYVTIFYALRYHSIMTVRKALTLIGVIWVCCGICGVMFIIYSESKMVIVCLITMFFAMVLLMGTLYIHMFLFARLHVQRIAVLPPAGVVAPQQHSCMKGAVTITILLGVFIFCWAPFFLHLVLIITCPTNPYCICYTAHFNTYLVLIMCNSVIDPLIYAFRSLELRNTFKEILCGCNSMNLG
Substance,"hyperpolarization of POMC neurons (7 nM, 9 of 15 neurons) [1]","increase of the frequency of GABAergic IPSCs recorded from POMC neurons (7 nM, 3 of 4 neurons) [1]","hyperpolarization of the membrane potential of POMC cells (Met-Enk 30 µM, whole cell recording, n=10) [2]"
D-Trp^8-γMSH (peptide),-5.5 mV,280%,
met-enkephalin (from UniProt P01210 100-104) (peptide),,,10 to 20 mV
